Target: human pNBC1 (pancreas-type Na/HCO3 cotransporter 1) (human), Q9Y6R1
Assay: cell-based or functional assay

Chain of human pNBC1 (pancreas-type Na/HCO3 cotransporter 1) (human), Q9Y6R1 (Q9Y6R1 whole entry): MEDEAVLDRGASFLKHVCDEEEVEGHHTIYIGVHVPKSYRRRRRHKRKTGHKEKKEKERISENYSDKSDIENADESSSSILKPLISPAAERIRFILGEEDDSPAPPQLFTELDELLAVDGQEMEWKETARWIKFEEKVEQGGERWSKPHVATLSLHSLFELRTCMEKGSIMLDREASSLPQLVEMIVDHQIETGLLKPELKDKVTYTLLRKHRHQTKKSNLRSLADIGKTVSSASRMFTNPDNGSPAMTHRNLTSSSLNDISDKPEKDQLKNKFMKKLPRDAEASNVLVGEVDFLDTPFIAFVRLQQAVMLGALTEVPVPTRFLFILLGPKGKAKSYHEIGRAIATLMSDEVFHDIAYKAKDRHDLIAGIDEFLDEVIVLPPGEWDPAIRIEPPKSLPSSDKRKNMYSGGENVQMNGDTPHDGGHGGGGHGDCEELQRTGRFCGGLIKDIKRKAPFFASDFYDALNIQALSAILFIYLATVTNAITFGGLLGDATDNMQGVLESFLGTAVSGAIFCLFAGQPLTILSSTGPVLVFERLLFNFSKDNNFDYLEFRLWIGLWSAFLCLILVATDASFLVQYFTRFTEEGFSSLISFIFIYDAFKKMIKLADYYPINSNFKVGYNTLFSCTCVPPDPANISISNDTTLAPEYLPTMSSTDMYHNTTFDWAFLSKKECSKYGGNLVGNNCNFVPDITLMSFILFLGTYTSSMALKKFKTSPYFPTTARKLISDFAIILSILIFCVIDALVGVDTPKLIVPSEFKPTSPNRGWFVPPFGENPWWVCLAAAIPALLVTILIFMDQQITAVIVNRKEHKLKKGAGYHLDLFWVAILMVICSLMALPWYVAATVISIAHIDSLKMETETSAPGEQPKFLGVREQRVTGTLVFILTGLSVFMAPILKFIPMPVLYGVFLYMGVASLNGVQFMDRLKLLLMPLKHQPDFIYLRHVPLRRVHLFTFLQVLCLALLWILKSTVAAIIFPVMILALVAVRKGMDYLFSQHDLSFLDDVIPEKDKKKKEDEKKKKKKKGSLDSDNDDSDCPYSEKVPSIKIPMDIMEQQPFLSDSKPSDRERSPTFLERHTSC

B1: mouse IRBIT (IP3 receptor-binding protein; IP3R-binding protein released with inositol 1,4,5-trisphosphate), Q80SW1 1-530 (protein)
chain: MSMPDAMPLPGVGEELKQAKEIEDAEKYSFMATVTKAPKKQIQFADDMQEFTKFPTKTGRRSLSRSISQSSTDSYSSAASYTDSSDDEVSPREKQQTNSKGSSNFCVKNIKQAEFGRREIEIAEQDMSALISLRKRAQGEKPLAGAKIVGCTHITAQTAVLIETLCALGAQCRWSACNIYSTQNEVAAALAEAGVAVFAWKGESEDDFWWCIDRCVNMDGWQANMILDDGGDLTHWVYKKYPNVFKKIRGIVEESVTGVHRLYQLSKAGKLCVPAMNVNDSVTKQKFDNLYCCRESILDGLKRTTDVMFGGKQVVVCGYGEVGKGCCAALKALGAIVYITEIDPICALQACMDGFRVVKLNEVIRQVDVVITCTGNKNVVTREHLDRMKNSCIVCNMGHSNTEIDVTSLRTPELTWERVRSQVDHVIWPDGKRVVLLAEGRLLNLSCSTVPTFVLSITATTQALALIELYNAPEGRYKQDVYLLPKKMDEYVASLHLPSFDAHLTELTDDQAKYLGLNKNGPFKPNYYRY
current change at a membrane potential of -25 mV when ND96 solution was replaced by ND96+HCO3- solution (voltage clamp, Xenopus oocytes): 6 to 7 times

Reference: patent US20100167314A1
